Laboratory results reported in article PMC11647504, “The GPCR adaptor protein Norbin controls the trafficking of C5aR1 and CXCR4 in mouse neutrophils” (The Journal of Biological Chemistry, 2024).

T1: Recombinant His-Norbin (His-tagged rat Norbin protein) (rat, UniProt O35095 1-729)
T1 construct: Norbin (Neurochondrin), rat, full-length construct; 98% identical to human Norbin; also called Neurochondrin; NCDN; source: M15 [pREP4] bacteria, inclusion bodies solubilized in 6 M guanidine hydrochloride, renatured by dialysis, purified; not shown: 6xHis, C-terminal, kept
T1 sequence (looked up): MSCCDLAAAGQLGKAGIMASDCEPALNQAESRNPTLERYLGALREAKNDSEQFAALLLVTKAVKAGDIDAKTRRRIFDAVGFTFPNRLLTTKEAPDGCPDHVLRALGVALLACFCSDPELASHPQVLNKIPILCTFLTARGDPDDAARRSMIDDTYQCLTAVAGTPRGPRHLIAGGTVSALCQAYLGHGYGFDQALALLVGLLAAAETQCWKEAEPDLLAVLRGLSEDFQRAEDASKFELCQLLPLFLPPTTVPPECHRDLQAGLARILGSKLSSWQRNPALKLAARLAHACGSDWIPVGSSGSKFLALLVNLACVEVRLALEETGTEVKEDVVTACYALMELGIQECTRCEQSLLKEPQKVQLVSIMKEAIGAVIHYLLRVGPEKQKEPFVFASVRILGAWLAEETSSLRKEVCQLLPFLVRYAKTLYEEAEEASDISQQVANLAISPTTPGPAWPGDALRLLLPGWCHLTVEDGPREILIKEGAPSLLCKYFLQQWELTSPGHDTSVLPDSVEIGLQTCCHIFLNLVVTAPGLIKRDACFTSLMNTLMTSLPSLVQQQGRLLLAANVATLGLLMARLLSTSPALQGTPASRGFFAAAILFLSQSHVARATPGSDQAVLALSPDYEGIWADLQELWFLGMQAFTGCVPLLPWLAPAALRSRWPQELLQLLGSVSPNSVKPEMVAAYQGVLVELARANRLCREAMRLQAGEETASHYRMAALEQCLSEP

B1: GST-tagged C-terminal tail of human CXCR4 (domain or fragment)
chain: FHCCLNPILYAFLGAKFKTSAQHALTSVSRGSSLKILSKGKRGGHSSVSTESESSSFHSS
notes: In pGEX6P1, cloned with BamH1 and Xho1; also called GST-CXCR4
B2: GST-tagged C-terminal tail of MCH1 (melanin-concentrating hormone receptor 1) (domain or fragment)
chain: ANSCLNPFVYIVLCETFRKRLVLSVKPAAQGQLRAVSNAQTADEERTESKGT
notes: In pGEX4T3; Positive control; also called GST-MCH1
B3: GST-tagged C-terminal tail of human C5aR1 (domain or fragment)
chain: INCCINPIIYVVAGQGFQGRLRKSLPSLLRNVLTEESVVRESKSFTRSTVDTMAQKTQAV
notes: In pGEX4T3, cloned with BamH1 and Xho1; also called GST-C5aR1

Target: T1, Recombinant His-Norbin (His-tagged rat …)
Assay: pull-down; GST-tagged GPCR C-terminal tails (or GST) from bacterial lysates bound to glutathione Sepharose, washed twice in PBS, 2% Triton X-100, 5 mM DTT, incubated with 50 μg purified recombinant His-Norbin for 3 h at 4 °C, washed 3 x in PBS, 1% Triton X-100; western blot with His antibody
Conditions: both partners purified

Row | binding result | Binder
1 | binds | B1
2 | binds | B2
3 | binds | B3
